Results from the supplement of paper PMC12042874.
± gives the uncertainty stated by the source.

test: amyloid nucleation score (Sup35N fusion, yeast selection) (log enrichment); library NNK2; higher = more nucleation; inactive = no reads after selection
How it was run: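 The nucleation score, computed with DiMSum, is the log enrichment of output over input reads, centred on the mode score of non-aggregating sequences. Sequences with under 100 input reads were dropped. Reads were generated by Illumina sequencing of plasmid inserts from psi-negative yeast with Sup35N fused to peptides of 20 random codons, induced with 100 μM copper sulfate for 24 hours and grown 7 days at 30°C on medium lacking adenine and uracil.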

Substance	amyloid nucleation score
AILKWSLICMMGRDWYSQWF	6.317 ± 0.037
QYDIVPNVSGNYPNGIFKDR	inactive
LLWSTILMFWF	inactive
DADIRQ	0.764 ± 0.47
WHGPYYCGGCRTDIVCWNRA	5.888 ± 0.05
RVKLACTRLCWLSADFDGNL	4.04 ± 0.079
FRIHIWYGY	0.244 ± 0.17
TIFWLTISCQRYRD	1.46 ± 0.13
KLGRCRRKFMLYGCNLVQSR	-0.133 ± 0.33
SQCFERV	0.637 ± 0.36
GLNYIARMSQN	0.392 ± 0.3
NFCLARRYTYIKSPFCVSGK	0 ± 0.56
VTGIATTS	0.44 ± 0.3
NARGHVNV	0.786 ± 0.44
VKYFSYDIVGVGREYYFKTT	-0.555 ± 0.76
NIKFHVFDLCDSPHGWLPDR	0.224 ± 0.56
GILYFLFVLSSVGDVCRLLV	-0.709 ± 0.63
IGTEWVFVM	0.17 ± 0.64
TSGMNDITR	-0.093 ± 0.23
DGTGYGTSKLTWWRDFLKRC	-0.192 ± 0.63
ETCSAVFIN	0.041 ± 0.62
YVTPKDDSDAVWGLTLMEMS	0.292 ± 0.39
FYRTSRASAGLS	-0.237 ± 0.79
KRHMVSS	1.72 ± 0.42
WLPNQVKGHLSFRMCSDIRH	4.334 ± 0.035

Substance	amyloid nucleation score
NPTWVRCYWHFWFTVNGFQY	-1.17 ± 1.1
HIWTEVFIYVCSWRLYTTRV	-1.48 ± 0.64
FNCTRKNLCFFGIVYSSIIT	-0.86 ± 0.63
CCYLFRSLRLVGSQIFSQSL	0.35 ± 0.8
RPRVVTQLFMYLNDCRGSPP	6.693 ± 0.055
TFYCTSCFLLMSVMSFHRLL	1.89 ± 0.13
QVRELVVLNSMGYPSSW	-0.188 ± 0.41
RSKLNIDV	1.95 ± 0.14
TDFCSHKTWLSAVGISV	0.037 ± 0.23
NFGGIKKLYNTMRSYWLGTR	-1.22 ± 0.45
MFYLCLRVVFRLKSWDFCDK	-0.271 ± 0.34
RIWKWLLTQICFIRAQPLM	0.49 ± 0.31
ISASGVDSDEGVRPGQLMMC	10.4 ± 0.065
RFRGGSKSGLYFIVCISDVW	-0.758 ± 0.44
SCQFWSTFCTSC	0.378 ± 0.74
FIMCSDYPYHITPYPWLGPG	-0.59 ± 0.37
HLHPGVYLKPFDGCGIINGI	0.213 ± 0.8
LRGRRRTVLPANGWCSLTAL	0.453 ± 0.28
LEVYVLFTVTYAVMRMNMDG	0.302 ± 0.56
LFTVLKTVWANNNTYDSKQK	-1.23 ± 0.78
LWPVCALDEGL	0.669 ± 0.62
LFDVADIDA	0.736 ± 0.74
FGYYQLYNDQGGYYPMSSAS	inactive
GNSLNSYLSE	-0.346 ± 0.42
RPKSKADYGWC	-0.119 ± 0.45

Substance	amyloid nucleation score
MFSNQADFDTNLVSLYDKTW	-0.825 ± 0.4
CTDQRGLSIIVLGYNSHSMR	5.682 ± 0.054
MTFVHVSNMWDRNEGICGDE	-0.323 ± 0.41
CITLMYNTPFYKITALWQPF	-0.484 ± 0.78
NGFHCG	inactive
TRYSILVDRRNRIFVVADPD	0.615 ± 0.32
LSCCSLIPTHPRPRDNVNEC	0.717 ± 0.23
FQSDLMINIK	-0.496 ± 0.56
TYHIYFVCLKSLWRFGEDCL	4.37 ± 0.055
TRNGWGSTGSLQRSQVSVWS	0.25 ± 0.42
SLHRFYYSHLYALRMRGNSR	6.16 ± 0.091
GLDMDGSVLPFVFYRSMYGE	0.136 ± 0.55
WFRKGHHVVT	1.08 ± 0.41
FFSVSNDHPSFFPANVGEVH	1.74 ± 0.25
RNGLRTLEQRRSKSVWEMSW	0.969 ± 0.16
RRHSNRICLQLWNHLGKRCR	0.587 ± 0.29
LSGRHY	0.33 ± 0.74
QFDMEQFVQCPGTMSSRAVG	5.04 ± 0.059
CARYLIEVRYKGKKIQYSM	-0.837 ± 0.39
YPCKSDF	-1.66 ± 0.45
CLDVLLDKGSADIYFRQSSN	-1.06 ± 0.61
STLSWSFIYTSIC	2.24 ± 0.1
VWLTKIIGPVRKLVKNTLGC	5.542 ± 0.047
LILTCPCMCRFYVWGSTQYR	-0.313 ± 0.39
FESTAGTDKLRTEHLDPFAD	inactive

Substance	amyloid nucleation score
RSRAQQHSQHNTVDITPTRS	0.194 ± 0.32
MAFCCLSVRYTIGRVVAFMY	-0.4 ± 0.64
SHNDISSRC	-0.795 ± 0.49
FQPFVDLLDVVHRELGSLTR	4.76 ± 0.067
GSDAVR	2.7 ± 0.082
GIRWQVATDSPRLSGYPLCT	3.46 ± 0.083
LAMYLWCTELP	-0.057 ± 0.63
DQDSNSFAQSVVSHNVLVNI	inactive
FFFFTNRVTKAVSYGYLMDD	-0.491 ± 0.63
ESYKCVFRLIDWNIDYILTV	0.855 ± 0.57
ISHTLHATITVLLVSNFCLS	0.475 ± 0.43
DRNMSVNI	1.22 ± 0.44
GFNLKVVVITTFDAFYYHAT	inactive
HSFGRKYFFTF	-0.307 ± 0.55
TIYMMSRDFRF	4.748 ± 0.028
TYLWSLGYVSFQL	-0.206 ± 0.79
RMRQASEAKSLGGPIGRQGL	1.2 ± 0.15
CKPRNLLLLSPKPIVLCKDF	-1.21 ± 0.79
NVYDRGVIGYMSNNVHTEGI	-1.07 ± 1.1
CILEHRSEQWYCYLWPARRG	4.24 ± 0.078
LRNMPRVQQVCPYFINVRGK	2.25 ± 0.082
PCRFTYRRWTG	-0.496 ± 0.41
LNAWQKEINDALSPLSYPDS	0.274 ± 1.1
VIAVCLVLVSSDVKIGTRMG	1.84 ± 0.16
NVLLNQNIMVLPGPLYFSIT	6.129 ± 0.054

Substance	amyloid nucleation score
ANVGYFVGW	0.873 ± 0.31
FFLAPKGKTSYGRGN	inactive
HCVLYCNMALFLQRSHRASC	8.484 ± 0.039
FSRSVKRLIVDVLRNKVCI	0.58 ± 0.54
RRFVLARVPNNKCPQTIRLD	0.733 ± 0.48
GSSGLCIRSSLIYFVCQTVW	6.903 ± 0.054
LNSGCAVVLCADSRHSNEPD	-0.062 ± 0.65
SLFRVKGAVLEVLVPRMLLY	0.51 ± 0.41
LVLFCAFRVTLGFSQTLNSM	-0.003 ± 0.8
DDASKKLYS	0.967 ± 0.15
MPLQFDPVWFILNTLLRPHA	-0.228 ± 0.42
NCVHRDNWE	inactive
SLSRGLC	0.404 ± 0.45
RIEVLTLCGGEAGSLVMGIV	1.16 ± 0.48
VDIEDGLG	0.13 ± 0.22
TWRLACRFLL	-0.12 ± 0.56
MDWSSGSYGSLSSSHAIERF	-0.093 ± 0.79
PIFYSPLAFMLRMYHNG	-0.998 ± 0.38
TTQDATLIVNSCNTFTLQVY	-0.389 ± 0.29
QGTRAYQSKALTVSIMLMLV	3.45 ± 0.096
FMNANRRVKKGQRVKRWTYS	0.045 ± 0.79
SIYFKVIATTSVYRLMPTVW	-0.291 ± 0.74
NARLRYGSL	-0.101 ± 0.37
NCEPELLAVLSRCFSSIWVS	-1.27 ± 0.78
NIVQEHTTCTEVRGVSALAR	0.436 ± 0.66

Substance	amyloid nucleation score
CILSYVQEMTMEPYLSKSLS	-0.296 ± 0.76
EFANWFVGYNQGSLGHALKQ	0.355 ± 0.42
LFSTYRNFIFVIHSADMCKS	-0.558 ± 1
HNGIMFTCYLSP	5.944 ± 0.053
GRWVNCKTVVLFSSDRRQAR	3.36 ± 0.14
NPIGFFHDLGVWIWWSSMAT	-1.26 ± 1.1
FSGLTDHFRSYLMYSAWTNI	-0.238 ± 0.48
NLWSSGKWLMCI	-0.292 ± 0.29
RIDGVFTIVSFYMELEGIRV	inactive
FCLLIGLLFTYWLSINFAIT	inactive
CSRKDYSYRVMKFVFCIYGL	6.45 ± 0.061
EIIFVMPVFYIFKTLCLLSA	0.332 ± 0.16
YKDHGCNDSWK	-0.572 ± 0.44
SDRGLRACQCVCWDFDSISM	6.212 ± 0.046
NFGIKWIVFLKL	-0.861 ± 0.28
HKETSFDGHFAICWCYTCRH	5.216 ± 0.046
KFRMDGGFILNVVHKQHNMV	0.023 ± 0.8
LLPCLPLPFMSPITARATHI	3.24 ± 0.058
RFSQRNPITVHGQSDTV	inactive
ERLRSLKDNIMNFCKSRLGL	inactive
SWLRMSTDVIGLRWFDGNA	4.84 ± 0.065
VSCVCHYVNNFNPMLCNRKC	-0.064 ± 0.8
PFTMSVFKSYKIAQRSSWAW	2.5 ± 0.089
SKNVFKMGLDTSH	-1.22 ± 0.32
YGFSGMMNSFSFHGC	6.07 ± 0.083

Substance	amyloid nucleation score
LLGLSGKYWIRGSKNSIFVW	0.157 ± 0.39
RQTGRLDFRTISRVKVDVIV	1.92 ± 0.28
NCGKLHQF	0.403 ± 0.5
NNFRWNVMVCYAFQGYSGVK	2.64 ± 0.068
MDNNVNNRSPFLICRMMDNI	inactive
FGLVHRIPRFVLWILSLGSG	-0.012 ± 1.1
NRHMLNTDRRPQVRLHFGTL	0.232 ± 0.37
LELVCRPISMSGWSGYHTCR	0.983 ± 0.41
SAMQFRSFF	0.94 ± 0.34
GVCVQGMFSVSYATILYKVA	1.02 ± 0.2
SEGIADVLSVSCWCYPCRPY	-1.21 ± 1.1
SFQPMRQFNFMINLWTVGAA	7.179 ± 0.056
QIFSECRTYDFVLPGYMGYY	inactive
ITVFAGFLRCCYLCFLDNHS	inactive
KDTRVVYVPSFYLWNLDAVK	-0.551 ± 0.61
SPLYLTLCMTLQVYGSR	4.04 ± 0.073
VFLSGINH	-1.18 ± 1.1
ICIVGRWYRASVFRVLEDYR	inactive
PFHPICVYKRPFLCPE	inactive
SGGVR	0.94 ± 0.32
